Tests used:
[1] = biological target: soluble BCMA (UniProt Q02223); assay: cell-based or functional assay
[2] = biological target: human CD38 on multiple myeloma cells (human) (UniProt P28907); assay: flow cytometry on NCI-H929 BCMA KO cells (BCMA-negative, CD38-positive)

soluble BCMA, sequence (Q02223 1-54 limits assumed): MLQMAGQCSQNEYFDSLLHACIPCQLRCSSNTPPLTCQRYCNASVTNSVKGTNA

Row | Substance | Fold difference to no soluble factor condition (EC50 from % Cytotoxicity), sBCMA [1] [fold] | Fold difference to no soluble factor condition (EC50 from % Killing to No Ab), sBCMA [1] [fold] | Maximum binding (RFI) [2] [RFI]
1 | teclistamab (bispecific antibody) | 75 | 30 | 104
2 | alnuctamab (bispecific antibody) | 380 | 367 | 101

Reference: patent publication US20240132615A1
